{"source": "patent US20250277029A1", "about": "(Amgen, published 2025)", "key": {"[1]": {"target": "T1, His-tagged huCB1-ND (human CB1 in nanodisc) (human)", "T1 construct": "CB1 construct of Cell 167(3) (2016) 750-762 expressed in Sf9 cells; POPC:MSP1D1:CB1 480:8:1; also called CB1-nanodisc; huCB1-Nanodisc; not shown: histidine purification tag", "T1 sequence (P21554 99-414)": "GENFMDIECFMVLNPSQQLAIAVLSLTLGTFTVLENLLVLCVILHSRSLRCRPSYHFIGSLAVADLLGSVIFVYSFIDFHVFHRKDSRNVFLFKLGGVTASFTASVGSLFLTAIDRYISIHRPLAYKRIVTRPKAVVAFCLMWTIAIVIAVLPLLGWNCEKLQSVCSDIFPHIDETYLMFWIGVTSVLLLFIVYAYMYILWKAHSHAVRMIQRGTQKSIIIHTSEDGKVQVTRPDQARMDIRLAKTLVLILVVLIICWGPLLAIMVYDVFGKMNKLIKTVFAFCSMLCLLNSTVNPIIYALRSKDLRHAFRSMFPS", "assay": "flow cytometry, yeast-displayed IgG, huCB1-ND over empty-ND"}, "[2]": {"target": "T1, His-tagged huCB1-ND (human CB1 in …)", "assay": "flow cytometry, yeast-displayed IgG, binding/display ratio"}, "[3]": {"target": "T2, GFP-fused huCB1-SMALP (human CB1 in styrene maleic acid lipoparticles) (human, UniProt P21554 1-472)", "T2 construct": "Prepared as in Luna V. et al. 2018; also called huCB1-GFP-SMALP; wtCB1-SMALP; not shown: GFP fusion", "T2 sequence (P21554 whole entry, the tested form may be a part)": "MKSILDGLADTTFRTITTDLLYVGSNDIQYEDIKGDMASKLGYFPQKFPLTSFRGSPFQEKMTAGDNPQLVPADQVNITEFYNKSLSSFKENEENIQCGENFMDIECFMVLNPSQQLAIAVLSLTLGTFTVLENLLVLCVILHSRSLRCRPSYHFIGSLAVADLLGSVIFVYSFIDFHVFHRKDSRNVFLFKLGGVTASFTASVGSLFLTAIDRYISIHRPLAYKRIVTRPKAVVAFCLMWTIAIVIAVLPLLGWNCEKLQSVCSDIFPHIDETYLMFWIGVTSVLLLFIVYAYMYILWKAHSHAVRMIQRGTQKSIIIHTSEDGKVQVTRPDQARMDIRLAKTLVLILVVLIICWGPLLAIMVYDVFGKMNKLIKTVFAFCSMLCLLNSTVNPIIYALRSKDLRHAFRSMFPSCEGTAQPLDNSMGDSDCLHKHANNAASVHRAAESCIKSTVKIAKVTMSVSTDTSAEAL", "assay": "flow cytometry, yeast-displayed IgG, GFP MFI"}}}
{"binder": "LIBC523844-1 (antibody, V domains shown) VH: QVQLQESGPGLVKPSQTLSLTCTVSGGSIRRGGDYWSWIRQHPGKGLEWIGHVYYTGSTKYNPSFKDRATISVNTYKNQFSLKLSSVTAADTAVYYCARDYDILTGYSYYYYGMDVWGQGTTVTVSS VL: DIVMTQSPLSLPVTPGEPASISCRSSQSLLSSSGANYVDWYLQKPGQSPQLLIYQGSNRASGVPDRFSGSGSGTDFTLKISRVEAEDVGVYYCRQARALPRTFGQGTKVEIKR", "values": [{"measurement": "specific huCB1 binding (CB1 ND/Empty ND ratio)", "setting": "[1]", "result": 8.58, "unit": "ratio"}, {"measurement": "relative binding to 0.2 nM huCB1-ND (relative to 10D10N35Y)", "setting": "[2]", "result": 3.78, "unit": "fold"}, {"measurement": "100 nM huCB1-SMALP binding (normalized to 10D10)", "setting": "[3]", "result": 6.69, "unit": "fold"}]}
{"binder": "LIBC523760-1 (antibody, V domains shown) VH: QVQLQESGPGLVKPSQTLSLTCTVSGGSIRRGGDYWSWIRQHPGKGLEWIGHVYQTGSTKYNPKFKGRATISVNTYKNQFSLKLSSVTAADTAVYYCARDYDILTGYSYYYYGMDVWGQGTTVTVSS VL: DIVMTQSPLSLPVTPGEPASISCRSSQSLLTSSGANYVDWYLQKPGQSPQLLIYLGSNRASGVPDRFSGSGSGTDFTLKISRVEAEDVGVYYCRQAVGTPRTFGQGTKVEIKR", "values": [{"measurement": "specific huCB1 binding (CB1 ND/Empty ND ratio)", "setting": "[1]", "result": 7.21, "unit": "ratio"}, {"measurement": "relative binding to 0.2 nM huCB1-ND (relative to 10D10N35Y)", "setting": "[2]", "result": 4.19, "unit": "fold"}, {"measurement": "100 nM huCB1-SMALP binding (normalized to 10D10)", "setting": "[3]", "result": 5.7, "unit": "fold"}]}
{"binder": "LIBC523748-1 (antibody, V domains shown) VH: QVQLQESGPGLVKPSQTLSLTCTVSGGSIRRGGDYWSWIRQHPGKGLEWIGHVYYTGSTKYNPSFEGRATISVKTYKNQFSLKLSSVTAADTAVYYCARDYDILTGYSYYYYGMDVWGQGTTVTVSS VL: not shown", "values": [{"measurement": "specific huCB1 binding (CB1 ND/Empty ND ratio)", "setting": "[1]", "result": 5.33, "unit": "ratio"}, {"measurement": "relative binding to 0.2 nM huCB1-ND (relative to 10D10N35Y)", "setting": "[2]", "result": 4.41, "unit": "fold"}, {"measurement": "100 nM huCB1-SMALP binding (normalized to 10D10)", "setting": "[3]", "result": 6.12, "unit": "fold"}]}
{"binder": "LIBC523862-1 (antibody, V domains shown) VH: QVQLQESGPGLVKPSQTLSLTCTVSGGSIRRGGDYWSWIRQHPGKGLEWIGHIYQTGSTAYNPSLKGRATISVNTYKNQFSLKLSSVTAADTAVYYCARDYDILTGYSYYYYGMDVWGQGTTVTVSS VL: DIVMTQSPLSLPVTPGEPASISCRSSQSLLHSTGANYVDWYLQKPGQSPQLLIYLGSNRASGVPDRFSGSGSGTDFTLKISRVEAEDVGVYYCRQAIALPRTFGQGTKVEIKR", "values": [{"measurement": "specific huCB1 binding (CB1 ND/Empty ND ratio)", "setting": "[1]", "result": 13.6, "unit": "ratio"}, {"measurement": "relative binding to 0.2 nM huCB1-ND (relative to 10D10N35Y)", "setting": "[2]", "result": 5.07, "unit": "fold"}, {"measurement": "100 nM huCB1-SMALP binding (normalized to 10D10)", "setting": "[3]", "result": 3.97, "unit": "fold"}]}
{"binder": "LIBC523815-1 (antibody, V domains shown) VH: QVQLQESGPGLVKPSQTLSLTCTVSGGSIRRGGDYWSWIRQHPGKGLEWIGHIYQSGQTKYNPSLKDRATISVNTYKNQFSLKLSSVTAADTAVYYCARDYDILTGYSYYYYGMDVWGQGTTVTVSS VL: DIVMTQSPLSLPVTPGEPASISCRSSQSLLTSSGANYVDWYLQKPGQSPQLLIYLGSNRASGVPDRFSGSGSGTDFTLKISRVEAEDVGVYYCRQAREQPRTFGQGTKVEIKR", "values": [{"measurement": "specific huCB1 binding (CB1 ND/Empty ND ratio)", "setting": "[1]", "result": 14.8, "unit": "ratio"}, {"measurement": "relative binding to 0.2 nM huCB1-ND (relative to 10D10N35Y)", "setting": "[2]", "result": 6.15, "unit": "fold"}, {"measurement": "100 nM huCB1-SMALP binding (normalized to 10D10)", "setting": "[3]", "result": 4.55, "unit": "fold"}]}
{"binder": "LIBC523813-1 (antibody, V domains shown, also called LIBC523813-1 + VK2 germline fix) VH: QVQLQESGPGLVKPSQTLSLTCTVSGGSIRRGGDYWSWIRQHPGKGLEWIGHVYYTGQTAYNPKFKDRATISVKTYKNQFSLKLSSVTAADTAVYYCARDYDILTGYSYYYYGMDVWGQGTTVTVSS VL: DIVMTQSPLSLPVTPGEPASISCRSSQSLLSSSGANYVDWYLQKPGQSPQLLIYLGSNRASGVPDRFSGSGSGTDFTLKISRVEAEDVGVYYCMQARGIPRTFGQGTKVEIKR", "values": [{"measurement": "specific huCB1 binding (CB1 ND/Empty ND ratio)", "setting": "[1]", "result": 5.79, "unit": "ratio"}, {"measurement": "relative binding to 0.2 nM huCB1-ND (relative to 10D10N35Y)", "setting": "[2]", "result": 3.38, "unit": "fold"}, {"measurement": "100 nM huCB1-SMALP binding (normalized to 10D10)", "setting": "[3]", "result": 6.32, "unit": "fold"}]}
{"binder": "LIBC523868-1 (antibody, V domains shown) VH: QVQLQESGPGLVKPSQTLSLTCTVSGGSIRRGGDYWSWIRQHPGKGLEWIGHVYYEGSTAYNPSFEDRATISVNTYKNQFSLKLSSVTAADTAVYYCARDYDILTGYSYYYYGMDVWGQGTTVTVSS VL: DIVMTQSPLSLPVTPGEPASISCRSSQSLLTSYGINYVDWYLQKPGQSPQLLIYLGSNRASGVPDRFSGSGSGTDFTLKISRVEAEDVGVYYCMQARQIPRTFGQGTKVEIKR", "values": [{"measurement": "specific huCB1 binding (CB1 ND/Empty ND ratio)", "setting": "[1]", "result": 13.3, "unit": "ratio"}, {"measurement": "relative binding to 0.2 nM huCB1-ND (relative to 10D10N35Y)", "setting": "[2]", "result": 6.28, "unit": "fold"}, {"measurement": "100 nM huCB1-SMALP binding (normalized to 10D10)", "setting": "[3]", "result": 4.21, "unit": "fold"}]}
